Experiments:
[1] = target: CXC chemokine receptor 1 (CXCR1) (human) (UniProt P25024)
[2] = target: trapped dimer (CXCL8^R26C) (human); assay: native MS; nanoESI-MS under non-denaturing conditions, 200 mM ammonium acetate; 5‒20 μM protein (methods; 2–7 μM in the results for the wild type); monomer to dimer
[3] = target: wild-type CXCL8^1–72 (human); assay: as above

CXC chemokine receptor 1 (CXCR1) (human), sequence (P25024 whole entry): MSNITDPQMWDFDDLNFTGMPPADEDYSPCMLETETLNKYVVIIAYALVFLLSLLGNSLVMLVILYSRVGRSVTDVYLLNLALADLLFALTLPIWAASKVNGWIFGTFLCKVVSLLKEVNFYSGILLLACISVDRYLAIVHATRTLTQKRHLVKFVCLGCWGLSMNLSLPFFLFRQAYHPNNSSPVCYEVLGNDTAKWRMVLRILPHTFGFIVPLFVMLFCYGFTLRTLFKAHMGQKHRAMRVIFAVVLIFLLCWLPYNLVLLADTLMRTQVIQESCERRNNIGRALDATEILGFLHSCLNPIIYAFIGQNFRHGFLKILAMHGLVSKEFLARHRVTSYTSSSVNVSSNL

NanoBiT Gi1 dissociation assay in HEK293A cells; fold higher concentration needed than the trapped monomer (CXCL8^1–65) to elicit a response from CXCR1 [1] [fold]	NanoBiT Gi1 dissociation assay in HEK293A cells; fold higher concentration needed than the wild-type CXCL8 to elicit a response from CXCR1 [1] [fold]	stoichiometry N [2]	stoichiometry N [3]	Substance
32	85	2		trapped dimer (CXCL8^R26C) (ligand)
			2	wild-type CXCL8^1–72 (ligand)
